Key:
Experiment in all cases: pull-down
GST-Sla1(1–420aa, W41S) = biological target: T1, GST-Sla1(1–420aa, W41S) (S. cerevisiae, UniProt P32790 1-420, W41S)
T1 sequence (looked up): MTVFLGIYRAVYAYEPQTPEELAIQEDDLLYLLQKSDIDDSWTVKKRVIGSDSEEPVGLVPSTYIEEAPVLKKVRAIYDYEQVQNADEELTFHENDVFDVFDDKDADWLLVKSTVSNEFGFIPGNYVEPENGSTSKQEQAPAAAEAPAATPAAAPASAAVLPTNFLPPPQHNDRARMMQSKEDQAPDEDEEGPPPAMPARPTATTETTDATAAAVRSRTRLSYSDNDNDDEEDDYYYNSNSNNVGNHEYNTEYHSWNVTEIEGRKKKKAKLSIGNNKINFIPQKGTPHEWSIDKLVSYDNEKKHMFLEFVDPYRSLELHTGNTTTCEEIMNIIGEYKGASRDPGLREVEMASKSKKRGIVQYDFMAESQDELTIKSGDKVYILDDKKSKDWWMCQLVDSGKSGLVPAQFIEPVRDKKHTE

GST-Sla1(1–420aa) = biological target: T2, GST-Sla1(1–420aa) (S. cerevisiae, UniProt P32790 1-420)
T2 sequence (looked up): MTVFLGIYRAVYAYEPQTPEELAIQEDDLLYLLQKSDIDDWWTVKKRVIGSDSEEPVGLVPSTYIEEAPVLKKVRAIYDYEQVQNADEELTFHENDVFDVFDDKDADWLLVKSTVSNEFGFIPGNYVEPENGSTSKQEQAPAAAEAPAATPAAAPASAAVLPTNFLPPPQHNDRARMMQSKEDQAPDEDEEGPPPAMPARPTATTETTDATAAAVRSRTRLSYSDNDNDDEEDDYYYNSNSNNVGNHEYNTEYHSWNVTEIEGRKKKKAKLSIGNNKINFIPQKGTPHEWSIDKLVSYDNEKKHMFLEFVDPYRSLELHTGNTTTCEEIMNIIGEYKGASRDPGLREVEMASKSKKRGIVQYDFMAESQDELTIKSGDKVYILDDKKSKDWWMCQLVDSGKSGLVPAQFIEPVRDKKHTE

GST-Ysc84 = biological target: T3, GST-Ysc84 (S. cerevisiae, UniProt P32793 1-468)
T3 sequence (looked up): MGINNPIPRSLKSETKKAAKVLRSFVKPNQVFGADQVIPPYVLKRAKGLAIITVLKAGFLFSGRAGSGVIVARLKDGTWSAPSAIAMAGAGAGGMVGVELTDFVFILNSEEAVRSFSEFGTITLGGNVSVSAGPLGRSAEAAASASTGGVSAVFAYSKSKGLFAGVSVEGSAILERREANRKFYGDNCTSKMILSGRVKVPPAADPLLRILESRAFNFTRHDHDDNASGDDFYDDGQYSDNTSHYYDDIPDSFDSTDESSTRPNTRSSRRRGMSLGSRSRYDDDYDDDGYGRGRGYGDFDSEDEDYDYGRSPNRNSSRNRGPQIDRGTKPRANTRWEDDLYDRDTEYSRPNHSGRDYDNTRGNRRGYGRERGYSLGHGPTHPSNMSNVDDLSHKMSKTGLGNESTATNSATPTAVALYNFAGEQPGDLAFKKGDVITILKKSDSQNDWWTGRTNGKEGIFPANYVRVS

GST-Sla1(1–420aa, W108S) = biological target: T4, GST-Sla1(1–420aa, W108S) (S. cerevisiae, UniProt P32790 1-420, W108S)
T4 sequence (looked up): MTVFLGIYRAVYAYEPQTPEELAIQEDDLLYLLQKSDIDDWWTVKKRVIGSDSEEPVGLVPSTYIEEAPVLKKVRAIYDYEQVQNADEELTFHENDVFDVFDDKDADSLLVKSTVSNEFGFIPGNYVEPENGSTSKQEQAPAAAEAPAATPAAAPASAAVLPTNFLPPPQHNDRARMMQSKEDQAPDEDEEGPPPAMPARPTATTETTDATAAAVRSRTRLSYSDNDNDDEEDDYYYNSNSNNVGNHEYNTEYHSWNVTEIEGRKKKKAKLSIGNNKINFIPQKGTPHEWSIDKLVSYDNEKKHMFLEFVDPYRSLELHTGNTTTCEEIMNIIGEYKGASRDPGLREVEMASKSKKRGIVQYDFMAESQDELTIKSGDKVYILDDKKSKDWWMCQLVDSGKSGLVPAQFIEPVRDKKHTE

GST-Lsb3 = biological target: T5, GST-Lsb3 (S. cerevisiae, UniProt P43603 1-459)
T5 sequence (looked up): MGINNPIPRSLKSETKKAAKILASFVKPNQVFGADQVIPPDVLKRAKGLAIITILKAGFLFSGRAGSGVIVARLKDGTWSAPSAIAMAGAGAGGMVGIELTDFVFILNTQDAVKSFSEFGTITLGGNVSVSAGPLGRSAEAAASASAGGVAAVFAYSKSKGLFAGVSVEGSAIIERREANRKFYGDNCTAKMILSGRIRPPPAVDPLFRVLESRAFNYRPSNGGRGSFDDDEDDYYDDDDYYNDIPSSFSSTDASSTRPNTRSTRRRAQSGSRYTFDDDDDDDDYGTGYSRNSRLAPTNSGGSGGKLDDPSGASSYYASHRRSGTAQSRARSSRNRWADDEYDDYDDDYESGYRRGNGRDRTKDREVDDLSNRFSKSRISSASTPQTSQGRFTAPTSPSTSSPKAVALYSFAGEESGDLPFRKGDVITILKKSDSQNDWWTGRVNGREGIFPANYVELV

Measured: binding result

B1: MBP-Ecm25(361–535aa) (domain or fragment, S. cerevisiae, UniProt P32525 361-535, looked up)
chain: EISSPPSSVSSSSTIPVLPKPRKSSPTRYSELGCLTLPRSRSPSPQRSVTSPTYTPVALQNTPVLKPKSSSRNVSSPSFNAKPPLPIKAVTRPQLSLTSNSNTDLALASSSTDTLSSPTKTPSADSLPLSNSSTDLTISDNIKEMVKDEPAKDKNSVETDIFVQQFESLTLVQNA
binds: all assays above

B2: MBP-Ecm25-C-term (361–599aa) (domain or fragment, S. cerevisiae, UniProt P32525 361-599, looked up)
chain: EISSPPSSVSSSSTIPVLPKPRKSSPTRYSELGCLTLPRSRSPSPQRSVTSPTYTPVALQNTPVLKPKSSSRNVSSPSFNAKPPLPIKAVTRPQLSLTSNSNTDLALASSSTDTLSSPTKTPSADSLPLSNSSTDLTISDNIKEMVKDEPAKDKNSVETDIFVQQFESLTLVQNAKIKKFDKELQEKKKKNETTSKTADKFSQKGYSDIKASNKVSRLAALYEERLQGLQVMNEMKQRW
binds: all assays above

Source: PMC8202958 (Cell reports, 2021)
